Assay results from publication doi:10.1101/2023.09.20.558696.

Experiments:
Test in all cases: co-IP
[1] = target: LtPP1-8e 354-358A, Pd-tagged (L. tarentolae)
[2] = target: LtPP1-8e CΔ23, Pd-tagged (L. tarentolae)
[3] = target: LtPP1-8e CΔ11, Pd-tagged (L. tarentolae)
[4] = target: LtPP1-8e 109-134Δ, Pd-tagged (L. tarentolae)
[5] = target: LtPP1-8e D290A, Pd-tagged (L. tarentolae)
[6] = target: LtPP1-8e 359-362A, Pd-tagged (L. tarentolae)
[7] = target: LtPP1-8e D292A, Pd-tagged (L. tarentolae)
[8] = target: LtPP1-8e I360A, Pd-tagged (L. tarentolae)
[9] = target: LtPP1-8e I217A, Pd-tagged (L. tarentolae)
[10] = target: LtPP1-8e F305A, Pd-tagged (L. tarentolae)
[11] = target: LtPP1-8e 263-265A, Pd-tagged (L. tarentolae)
[12] = target: LtPP1-8e 109-114A, Pd-tagged (L. tarentolae)
[13] = target: LtPP1-8e 260LP261 to alanine, Pd-tagged (L. tarentolae)
[14] = target: LtPP1-8e 310DHK312 to alanine, Pd-tagged (L. tarentolae)
[15] = target: LtPNUTS D101A, Pd-tagged (L. tarentolae)
[16] = target: LtPNUTS V97A, Pd-tagged (L. tarentolae)
[17] = target: LtPNUTS R94A, Pd-tagged (L. tarentolae)
[18] = target: LtPNUTS L111A, Pd-tagged (L. tarentolae)

reduction of co-IP against WT PP1-8e [1] [%] | loss of co-IP against WT PP1-8e [2] [%] | reduction of co-IP against WT PP1-8e [3] [%] | reduction of co-IP against WT PP1-8e [4] [%] | reduction of co-IP against WT PP1-8e [5] [%] | reduction of co-IP against WT PP1-8e [6] [%] | reduction of co-IP against WT PP1-8e [7] [%] | reduction of co-IP against WT PP1-8e [8] [%] | reduction of co-IP against WT PP1-8e [9] [%] | reduction of co-IP against WT PP1-8e [10] [%] | reduction of co-IP against WT PP1-8e [11] [%] | reduction of co-IP against WT PP1-8e [12] [%] | reduction of co-IP against WT PP1-8e [13] [%] | decrease of co-IP against WT PP1-8e [14] [%] | decrease of co-IP against WT PNUTS [15] [%] | fold decrease of co-IP against WT PNUTS [16] [fold] | reduction of co-IP against WT PNUTS [17] [%] | reduction of co-IP against WT PNUTS [18] [%] | Substance
50 | 80 | 30 | 80 | 50 | 80 | 60 | 80 | 50 | 80 | 90 | 80 | 80 | 20 | – | – | – | – | LtPNUTS, endogenously HA-tagged (natural protein)
– | – | – | – | – | – | – | – | – | – | – | – | – | – | 80 | 5 | 50 | 80 | LtPP1-8e, endogenously HA-tagged (enzyme)
